B1: H1H6790P: anti-PRLR antibody, human IgG1 Fc; HCVR/LCVR SEQ ID NOs 114/122 (antibody, V domains shown)
VH: EVQLVESGGGLVQPGGSLRLSCAASGFTFSSYAMTWVRQAPGKGLEWVSAITGSVGNTYYADSVKGRFTISRDNSKNTLYLQMNSLGAEDTAEYYCAKGAGMTTNWYLDLWGRGTLVTVSS
VL: DIVMTQSPDSLAVSLGARATINCKSSQSVLYSSNNQNYLTWYQQKPGQPPKLLIKWASTRESGVPDRFSGSGSGTDFTLTISSLQAEDVAVYYCQQYASSPYTFGQGTKLEIK
modifications: human IgG1 Fc
B2: H1H6781P: anti-PRLR antibody, human IgG1 Fc; HCVR/LCVR SEQ ID NOs 50/58 (antibody, V domains shown)
VH: EVQLVESGGDLVQPGESLRLSCTASGFTFNSYEMNWVRQAPGKGLEWVSYISSSGGTKYYVDSVKGRFTISRDNAKKSLYLQMNSLRADDTALYYCARLNGVDVFDIWGQGTMVTVSS
VL: DIQMTQSPSSLSASVGDRVTITCRASQDIFNYLAWFQQKPGKVPELLISAASTLQSGVPSRFSGSGSGTYFTLTISSLQPEDIATYYCQRYNSAPLTFGGGTKVEIK
modifications: human IgG1 Fc
B3: H1H6785P: anti-PRLR antibody, human IgG1 Fc; HCVR/LCVR SEQ ID NOs 98/106 (antibody, V domains shown)
VH: EVQLVESGGGLVQPGGSLRLSCAASGFTFSSYEMNWVRQAPGKGLEWISYISSRGGTIYYADSIKGRFTIYRDNARNSLYLQMNSLRAEDTAIYYCARLSGVDIFDIWGQGTMVTVSS
VL: B2 VL with D28G, F30S, F36Y, E45K, S49Y, A50F, S65G, Y70D, I83V
modifications: human IgG1 Fc
B4: H1H6792P: anti-PRLR antibody, human IgG1 Fc; HCVR/LCVR SEQ ID NOs 130/138 (antibody, V domains shown)
VH: EVQLVESGGGLVQPGRSLRLSCAASGFTLDDHAVHWVRQAPGKGLEWVSGISWNSVYIDYADSVKGRFTIFRDNAKNSLYLQMNSLRAEDTAFYYCARDIEGARDYWGQGTLVTVSS
VL: DIQMTQSPSSLSASVGDRVTITCRASQGIRNDLGWYQQKPGKAPKRLIYAASSLQSGVPSRFSGSGYGTEFTLTISSLQPEDFAPYYCLQHNSYPLTFGGGTKVEIK
modifications: human IgG1 Fc
B5: H1H6782P: anti-PRLR antibody, human IgG1 Fc; HCVR/LCVR SEQ ID NOs 66/74; non-blocking (antibody, V domains shown)
VH: EVQLVESGGGLVQPGRSLRLSCAASGFTFDDYAMHWVRQAPGKGLEWVSGIIWNSGHIGYGDSVKGRFTISRDNAKKSLYLQMNSLRAEDTALYYCARDSGRYQSYFDYWGQGTLVTVSS
VL: DIQMTQSPSTLSASVGDRVTITCRASHIISSWLAWYQQKPGKAPKVLIFKASSLESGVPSRFSGSGSGTEFTLTISSLQPDDFATYYCQQYNTYSRTFGQGTKVEIK
modifications: human IgG1 Fc

The values below come from patent publication US9688764B2, “Methods of treating breast cancer by administering anti-human prolactin receptor (PRLR) antibodies” (REGENERON PHARMACEUTICALS, INC., priority 2013, dated 2017).

Numbering of substitutions follows the chain as printed.

In the first test the target is T1, hPRLR.mmh (soluble monomeric human PRLR) (Homo sapiens, UniProt P16471).
T1 construct: soluble monomeric (hPRLR.mmh); mmh (myc-myc-hexahistidine)
T1 sequence (P16471 with tags, fused parts or gaps): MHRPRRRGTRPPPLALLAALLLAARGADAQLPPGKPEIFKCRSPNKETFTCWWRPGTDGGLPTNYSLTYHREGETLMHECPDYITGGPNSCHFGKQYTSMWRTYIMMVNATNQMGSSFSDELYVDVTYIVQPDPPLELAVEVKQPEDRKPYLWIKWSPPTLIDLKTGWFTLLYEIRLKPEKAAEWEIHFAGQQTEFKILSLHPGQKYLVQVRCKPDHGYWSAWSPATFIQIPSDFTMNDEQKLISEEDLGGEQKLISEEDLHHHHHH
In words: Surface plasmon resonance (Biacore T200), mAb-capture format. Format: binding. The note with it: 25° C., antibody-capture format, analyte hPRLR.mmh. Here is the method:
Antibodies, expressed as human IgG1 Fc “[…]” designations), were captured onto an anti-human Fc sensor surface (mAb-capture format), and soluble monomeric (hPRLR.mmh; SEQ ID NO:401, or macaca fascicularis (mf) PRLR.mmh; SEQ ID NO:403) or dimeric (hPRLR.mFc; SEQ ID NO:402) PRLR protein was injected over the sensor surface. Measurements were conducted on a T200 Biacore instrument. Kinetic association (ka) and dissociation (kd) rate constants were determined by processing and fitting the data to a 1:1 binding model using Scrubber 2.0 curve fitting software.
(In general: SPR reads the build-up and loss of mass on a sensor chip optically.)
As for B1, the Kd was 1.41 nM and the T½ is on record as 14 min.
Take B2: binding was characterised by a dissociation constant (Kd) of 0.61 nM and the T½ stood at 91 min.
With B3, binding was put at a Kd of 0.567 nM and the T½ is 68 min.
B4 yielded a Kd of 2.45 nM and a T½ of 15 min.
On the same counts, the results for B5 are 0.685 nM and 47 min.

The same test, now with this note: 37° C., antibody-capture format, analyte hPRLR.mmh.
With B1, binding was put at a Kd of 3.5 nM and the T½ came out at 4 min.
On the same counts, the results for B2 are 0.91 nM and 37 min.
In the same order, the values of B3 are 1.14 nM and 24 min.
On the same counts, the results for B4 are 5.27 nM and 5 min.
Consider B5, for which binding was put at a Kd of 1.28 nM and the T½ was 16 min.

The subject of a further test is HEK293/hPRLR/STAT5-Luc cells (human PRLR). Briefly: STAT5-Luc luciferase reporter assay, blocking of PRL-mediated receptor activation. The following applies: 5 nM constant PRL, 6 hr at 37° C. Format: cell-based. The source says: The ability of anti-PRLR antibodies to block prolactin (PRL)-mediated receptor activation was examined in a luciferase-based reporter assay. The endocrine hormone PRL binds to the extracellular domain of its cognate receptor PRLR, triggering rapid homodimerization and activating several downstream signaling cascades.
In this example, an engineered cell line was used to determine the ability of anti-PRLR antibodies to block ligand activation of the PRLR receptor. Briefly, HEK293/hPRLR/STAT5-Luc cell lines with stable incorporation of a human PRLR expression cassette and the STAT5-dependent luciferase reporter were generated via sequential rounds of Lipofectamine® 2000-mediated transfection (LifeTechnologies, Carlsbad, Calif.). Cells were selected for at least two weeks in the presence of 500 μg/mL G418 (hPRLR) and 100 μg/mL hygromycin B (STAT5-Luc). The STAT5-Luc assay utilized 2×10^5 HEK293/hPRLR/STAT5-Luc cells seeded in complete growth medium on PDL-coated 96 well plates grown overnight at 37° C., 5% CO2. To generate antibody inhibition curves, cells were incubated (6 hr at 37° C.) with serially diluted anti-human PRLR antibodies (100 nM to 24 pM) in the presence of 5 nM constant PRL before recording signal. PRL dose response curves were generated by the addition of serially diluted PRL (100 nM to 24 pM) to cells and recording signal after a 6 hr (37° C.) incubation in the absence of antibodies. The ability of the antibodies to activate PRLR in the absence of ligand was also assessed.
Luciferase activity was measured with ONE-GLO™ reagent (Promega, Madison, Wis.). Relative light units (RLUs) were measured on a Victor luminometer (Perkin Elmer, Shelton, Conn.). EC50/IC50 values were determined from a four-parameter logistic equation over an 8-point response curve using GraphPad Prism. Percent blocking and percent activation are reported for the highest antibody dose.
For orientation: A reporter such as luciferase makes a cellular process visible.
As to B1, inhibition was half-maximal at 0.206 nM (IC50).
Take B2: the half-inhibitory concentration (IC50) came to 0.027 nM.
On the same count and under the same terms, the value for B3 was 0.345 nM.
Still for that read-out and setting: the value for B4 was 0.57 nM.
Same read-out and setting: the figure for B5 is above 100 nM.

Staying with this test, now noted: 100 nM antibody, 5 nM PRL.
Turning to B1, the “Percent Blocking at 100 nM Antibody” value was determined as 100%.
With B2, the “Percent Blocking at 100 nM Antibody” value amounted to 100%.
On the same count and under the same terms, the figure for B3 is 100%; for B4 it is 100%; for B5 it is 0%.

In the next test the target is T2, PRLR-expressing cells (T47D) (Homo sapiens, UniProt P16471).
T2 construct: a native PRLR expressing cell line (T47D); endogenous in cells; host or cells: T47D
T2 sequence (P16471 25-622): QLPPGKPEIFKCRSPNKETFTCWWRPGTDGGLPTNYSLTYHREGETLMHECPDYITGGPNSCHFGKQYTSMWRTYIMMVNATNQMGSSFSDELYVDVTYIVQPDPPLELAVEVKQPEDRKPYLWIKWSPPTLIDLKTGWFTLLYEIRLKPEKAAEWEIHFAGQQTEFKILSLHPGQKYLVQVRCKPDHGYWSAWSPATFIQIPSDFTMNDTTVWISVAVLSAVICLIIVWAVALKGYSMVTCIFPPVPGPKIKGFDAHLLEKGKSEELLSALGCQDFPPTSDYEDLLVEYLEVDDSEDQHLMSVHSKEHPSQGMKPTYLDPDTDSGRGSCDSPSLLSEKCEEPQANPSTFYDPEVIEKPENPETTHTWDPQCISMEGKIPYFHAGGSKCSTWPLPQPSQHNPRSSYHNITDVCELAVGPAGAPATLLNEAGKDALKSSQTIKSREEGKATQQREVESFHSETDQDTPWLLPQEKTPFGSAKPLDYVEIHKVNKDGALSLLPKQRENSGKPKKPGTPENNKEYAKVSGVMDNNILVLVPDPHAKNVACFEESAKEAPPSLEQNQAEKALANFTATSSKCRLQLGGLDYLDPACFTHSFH
Briefly: Antibody binding and internalization by PRLR-expressing cells (imaging). The format is cell-based. The note with it: [mAb] (0.67 nM), alexa488 intensity in intracellular vesicles, 1 h at 37° C. Here is the method:
In this Example, the internalization of anti-PRLR antibodies by PRLR-expressing cells (T47D) was assessed. Briefly, 20,000 T47D cells were seeded in collagen coated 96 well plates. […] Cells were then incubated with alexa488 conjugated anti-hFc Fab secondary antibodies for 30 minutes on ice followed by two additional PBS washes. Antibodies were allowed to internalize for 1 h at 37° C. in internalization buffer (PBS+2% FBS) or remained at 4° C. Cells were fixed in 4% formaldehyde, nuclei were stained with DRAQ5 (Cell signaling), and images were acquired on the ImageXpress micro XL (Molecular Devices). Whole cell alexa488 intensity at 37° C. (Binding) and the alexa488 intensity in the intracellular vesicles at 37° C. (Internalization) were determined via Columbus image analysis software (PerkinElmer).
In the case of B1, the “% Internalization relative to Control I” value came out at 146.9%.
On the same count and under the same terms, the value for B2 was 165.1%; that for B3 was 169.1%; that for B4 was 155.9%.
The same measure, in the same setting: the figure for B5 is 179.3%.

Still in this test, the particulars now being: [mAb] (0.67 nM), whole cell alexa488 intensity at 37° C.
For the molecule B1, the “% Total Binding relative to Control I” value is on record as 122.8%.
The same measure, in the same setting: the figure for B2 is 166.2%.
Same read-out and setting: the value for B3 was 168.0%; that for B4 was 110.6%; that for B5 was 209.9%.

The test system of a further test is HEK293/mfPRLR. In words: FACS cell surface binding. Details: species or system macaca fascicularis.
HEK293/mfPRLR, sequence (as listed by the source): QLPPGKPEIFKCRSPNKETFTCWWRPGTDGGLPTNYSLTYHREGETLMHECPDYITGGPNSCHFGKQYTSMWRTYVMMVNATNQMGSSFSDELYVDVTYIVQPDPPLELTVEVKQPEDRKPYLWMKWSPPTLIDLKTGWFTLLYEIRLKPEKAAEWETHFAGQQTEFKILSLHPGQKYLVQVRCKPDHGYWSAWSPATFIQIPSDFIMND
Details: not given
Here is the method:
The ability of anti-PRLR antibodies to selectively bind PRLR expressing cell lines was next determined. Human, monkey macaca fascicularis, and mouse PRLR constructs with an HA tag were stably introduced into HEK293 cells via Lipofectamine 2000-mediated transfection methodology. Transfectants (HEK293/hPRLR, HEK293/mfPRLR and HEK293/mPRLR) were selected for at least 2 weeks in complete growth media plus G418.
Cell surface expression of PRLR on 293/hPRLR cells was assessed via FACS analysis. Briefly, 1×10^5 cells were incubated with 10 μg/ml of Control antibody I, or an isotype control for 30 min on ice in antibody dilution buffer. Following two washes with antibody dilution buffer, cells were incubated with 10 μg/ml of PE conjugated anti-human secondary antibodies for 30 min on ice. Following two additional washes, samples were run on a Hypercyt® cytometer and analyzed in FORECYT™ (IntelliCyt, Albuquerque, N. Mex.). The mean fluorescence intensities (MFI) were expressed as fold change above isotype control levels (background). FACS binding confirmed that Control I selectively bound to 293/hPRLR expressing cells with MFIs that were 30 fold above background (isotype ctrl) levels and less than 2 fold binding on parental cells.
Next, the anti-PRLR antibodies of the present invention were tested via FACS for selective binding to the engineered overexpressing PRLR HEK293 cell lines, as well as to non-expressing HEK293 cells and a native PRLR expressing cell line (T47D).
As to B1, the “FACS Cell Binding (Fold Above Background)” value worked out at 24 Fold Above Background.
For the molecule B2, the “FACS Cell Binding (Fold Above Background)” value worked out at 26 Fold Above Background.
Still for that read-out and setting: the value for B3 was 26 Fold Above Background; that for B4 was 28 Fold Above Background.
On the same count and under the same terms, the value for B5 was 32 Fold Above Background.

One may read the Kd as the free concentration of one partner at which half of the binding sites on the other are occupied at equilibrium, for simple one-to-one binding. Low values mean a tighter complex, high ones a looser complex. For orientation: IC50 means the concentration that gives 50% inhibition.
